Values joined by “and” are separate entries in the source; they are usually repeats but may differ in a detail not shown here. Identical values can stand only once. “Also recorded” adds a separate entry of the source.
Assay: Phase 1 (1a/1b) pharmacokinetics: plasma concentrations after single IV dose (validated direct fluorescence reader assay), noncompartmental analysis
Format: in vivo, human
Conditions: for AUC0-24 hr / AUCall / AUClast / C10 m / Cmax / T1/2 / Tmax: 1.2 mg/kg single IV; for Plasma Conc: 1.20 mg/kg
Description: Phase 1 is a single-Principal Investigator, non-randomized, open-label, single-arm, cross-sectional study to evaluate the safety, PK profile, and imaging feasibility of Compound 1 in patients with solid cancers who require surgical excision. The main purpose of this study was to investigate the safety, PK, and feasibility of Compound 1 as an intra-operative optical imaging agent to detect tumors and metastatic lymph nodes in solid cancers. The study was intended to investigate the optimal dose range of Compound 1 for an adequate TBR and CNR of fluorescence obtained intraoperatively at 24 (±8) hours post dosing and with ex vivo specimens using ICG compatible cameras and imaging devices.
Phase 1 enrolled 30 patients with solid cancers (HNSCC, breast cancer, esophageal cancer, or colorectal cancer) who have a biopsy-confirmed diagnosis of respective tumor types and are scheduled to undergo surgical resection of the tumor. The study design included a standard 3+3 design for the dose-escalation portion (Phase 1a; N=18 maximum) followed by a dose-expansion portion (Phase 1b; N=15). All patients received a single I.V. dose of Compound 1, followed by routine surgery approximately 24 hours after infusion of Compound 1.
Phase 1a was a dose-finding study performed in 5 cohorts of 3 patients each. The dose levels evaluated were […], and 1.2 mg/kg, in this sequence. Inter-cohort dose escalation took place after the last patient in the previous cohort completed the Day 10 safety assessment. Safety, PK, and imaging feasibility were evaluated in both the Phase 1a and 1b portions of the study. Patient safety is assessed during the study and for up to 10 days post-dose.
Study design: Single Compound 1 IV dose was administered as a 1-5 minute IV infusion to patients in five cohorts (0.1, 0.3, 0.5, 0.8, and 1.2 mg/kg) with three patients per cohort in Phase 1a and 15 patients at a dose of 1.2 mg/kg in Phase 1b. Patient demographic information including tumor types is presented in Table 4 and 5 for Phase 1a and Table 5 for Phase 1b. Intertek Pharmaceutical Services (San Diego, Calif.) determined Compound 1 plasma concentrations using a validated direct fluorescence reader assay. Pacific BioDevelopment (Davis, Calif.) performed the PK analysis.
Sample collection: Blood samples were collected prior to infusion and at 10 minutes and 0.5, 1, 3, 8, 24, 48, 72, and 240 hours after infusion.
Analysis: Plasma concentration versus time profiles were generated for each patient. Pharmacokinetic parameters were estimated using Phoenix WinNonlin (version 8.0). According to SOP, concentrations reported as BQL were set to 0 except for the 0.5 h sample for subject #ON1102, which was set to LLOQ/2 ([…] value used in parameter calculations) and the 24 and 48 h samples.
If the coefficient of determination for the terminal slope estimation was less than 0.8, T1/2 was not reported (NR). AUC extrapolated to infinity is not reported for any data set because in all cases the % extrapolated AUC was greater than 20% and thus the AUCinf estimate would not be reliable. The concentration at 10 minutes, the first time point measured (C10m), was also reported for each patient.
The area under the plasma concentration versus time curves from dosing to the last time point with a measurable concentration (AUClast) was estimated by the linear trapezoid method. The last three or more time points were used to estimate the elimination rate constant (λz) which was used to estimate the terminal-phase half-life (T1/2) and AUC from zero to infinity (AUCINF) from the following equations: […]

With “PEO90-140-b-P(DBA60-150-r-ICG0-3-r-AMA0-3) [Compound 1]” the AUC0-24 hr (Phase 1a, mean) was 495 µg·h/mL, the AUCall (Phase 1a, mean) was 842 µg·h/mL and the AUClast (Phase 1a, mean) was 682 µg·h/mL. The C10 m (Phase 1a, mean) was 31.7 µg/mL, the Cmax (Phase 1a, mean) was 31700 ng/mL and the T1/2 (Phase 1a, mean) was 36.5 h. For the same substance, the Tmax (Phase 1a, mean) was 0.170 h, the AUC0-24 hr (Phase 1a, median) was 563 µg·h/mL and the AUCall (Phase 1a, median) was 1020 µg·h/mL. The AUClast (Phase 1a, median) was 891 µg·h/mL, the C10 m (Phase 1a, median) was 33.0 µg/mL and the Cmax (Phase 1a, median) was 33000 ng/mL. For the same substance, the T1/2 (Phase 1a, median) was 32.5 h, the Tmax (Phase 1a, median) was 0.170 h and the “Plasma Conc” value (Phase 1a, 0.170 hr, individual subject) was 28000 ng/mL and 34100 ng/mL and 33000 ng/mL. The “Plasma Conc” value (Phase 1a, 0.170 hr, mean) was 31700 ng/mL, the “Plasma Conc” value (Phase 1a, 0.500 hr, individual subject) was 23900 ng/mL and 30500 ng/mL and 31800 ng/mL and the “Plasma Conc” value (Phase 1a, 0.500 hr, mean) was 28700 ng/mL. For the same substance, the “Plasma Conc” value (Phase 1a, 1.00 hr, individual subject) was 23900 ng/mL and 32100 ng/mL and 25800 ng/mL, the “Plasma Conc” value (Phase 1a, 1.00 hr, mean) was 27300 ng/mL and the “Plasma Conc” value (Phase 1a, 3.00 hr, individual subject) was 24500 ng/mL and 28400 ng/mL and 27800 ng/mL. The “Plasma Conc” value (Phase 1a, 3.00 hr, mean) was 26900 ng/mL, the “Plasma Conc” value (Phase 1a, 8.00 hr, individual subject) was 20500 ng/mL and 24400 ng/mL and 28400 ng/mL and the “Plasma Conc” value (Phase 1a, 8.00 hr, mean) was 24400 ng/mL. For the same substance, the “Plasma Conc” value (Phase 1a, 24.0 hr, individual subject) was “BQL (BQL (<10 μg/mL), set = 0 for PK analysis) and 18.3 μg/mL and 15.6 μg/mL”, the “Plasma Conc” value (Phase 1a, 24.0 hr, mean) was 11300 ng/mL and the “Plasma Conc” value (Phase 1a, 48.0 hr, individual subject) was “BQL (BQL (<10 μg/mL), set = 0 for PK analysis) and 15.6 μg/mL and 10.8 μg/mL”. For the same substance, the “Plasma Conc” value (Phase 1a, 48.0 hr, mean) was 8800 ng/mL, the “Plasma Conc” value (Phase 1a, 72.0 hr, individual subject) was “BQL (BQL (<10 μg/mL), set = 0 for PK analysis)” and the “Plasma Conc” value (Phase 1a, 72.0 hr, mean) was 0 ng/mL. For the same substance, the “Plasma Conc” value (Phase 1a, 240 hr, individual subject) was “BQL (BQL (<10 μg/mL), set = 0 for PK analysis)”, the “Plasma Conc” value (Phase 1a, 240 hr, mean) was 0 ng/mL and the “Exposure in relation to dose” value (Phase 1a, 0.1-1.2 mg/kg) was “dose-related; also recorded: increased proportionally with dose”. The Mean AUC0-24hr (Phase 1b, 1.2 mg/kg) was 638 µg·h/mL, the Mean terminal-phase half-life (Phase 1b, 1.2 mg/kg) was 46.4 h and the AUC0-24 hr (Phase 1b, individual subject) was 625 µg·h/mL and 606 µg·h/mL and 502 µg·h/mL and 787 µg·h/mL and 730 µg·h/mL and 585 µg·h/mL and 740 µg·h/mL and 630 µg·h/mL and 684 µg·h/mL and 626 µg·h/mL and 693 µg·h/mL and 562 µg·h/mL and 565 µg·h/mL and 520 µg·h/mL and 721 µg·h/mL. For the same substance, the AUCall (Phase 1b, individual subject) was 2690 µg·h/mL and 2150 µg·h/mL and 2120 µg·h/mL and 1460 µg·h/mL and 2550 µg·h/mL and 1100 µg·h/mL and 2740 µg·h/mL and 1170 µg·h/mL and 939 µg·h/mL and 1090 µg·h/mL and 3190 µg·h/mL and 1120 µg·h/mL and 747 µg·h/mL and 3350 µg·h/mL, the AUClast (Phase 1b, individual subject) was 1430 µg·h/mL and 1280 µg·h/mL and 1110 µg·h/mL and 1270 µg·h/mL and 1480 µg·h/mL and 961 µg·h/mL and 1580 µg·h/mL and 1020 µg·h/mL and 684 µg·h/mL and 971 µg·h/mL and 1740 µg·h/mL and 968 µg·h/mL and 957 µg·h/mL and 520 µg·h/mL and 1780 µg·h/mL and the C10 m (Phase 1b, individual subject) was 30.3 µg/mL and 31.4 µg/mL and 25.5 µg/mL and 40.0 µg/mL and 47.6 µg/mL and 32.6 µg/mL and 31.3 µg/mL and 36.5 µg/mL and 32.1 µg/mL and 35.8 µg/mL and 33.0 µg/mL and 28.0 µg/mL and 28.5 µg/mL and 27.5 µg/mL and 38.6 µg/mL. The Cmax (Phase 1b, individual subject) was 32400 ng/mL and 32600 ng/mL and 27600 ng/mL and 42200 ng/mL and 47600 ng/mL and 34300 ng/mL and 37700 ng/mL and 34100 ng/mL and 36400 ng/mL and 32000 ng/mL and 29900 ng/mL and 29200 ng/mL and 38600 ng/mL, the T1/2 (Phase 1b, individual subject) was 43.3 h and 61.4 h and 34.4 h and 38.4 h and 33.6 h and 46.8 h and 34.5 h and 33.4 h and 27.7 h and 83.0 h and 45.5 h and 42.6 h and 77.9 h and the Tmax (Phase 1b, individual subject) was 3.00 h and 1.00 h and 0.500 h and 0.170 h.

Source: patent US20230025280A1, “PH RESPONSIVE COMPOSITIONS, FORMULATIONS, AND METHODS OF IMAGING A TUMOR” (ONCONANO MEDICINE, INC, priority 2019, published 2023)
